Data reported in patent US20250382359A1 (BYOMASS, published 2025).

T1: Human GDF15 Fc (human, UniProt Q99988 195-308, limits assumed, biotinylated (EZ-Link Sulfo-NHS-Biotinylation Kit) in the SPR assay)
T1 construct: also called human GDF15-Fc fusion; biotinylated Human GDF15 Fc; not shown: Fc part
T1 sequence: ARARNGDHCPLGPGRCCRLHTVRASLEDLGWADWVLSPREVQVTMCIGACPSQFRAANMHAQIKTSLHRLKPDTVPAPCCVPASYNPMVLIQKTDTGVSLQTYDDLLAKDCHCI

T2: GDF10 (UniProt P55107 369-478)
T2 sequence (looked up): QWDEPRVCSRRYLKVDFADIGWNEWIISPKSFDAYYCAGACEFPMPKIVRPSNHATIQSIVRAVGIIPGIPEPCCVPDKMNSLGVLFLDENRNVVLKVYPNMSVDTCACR

T3: Human Activin A Fc (human, UniProt P08476 311-426)
T3 construct: not shown: Fc part
T3 sequence (looked up): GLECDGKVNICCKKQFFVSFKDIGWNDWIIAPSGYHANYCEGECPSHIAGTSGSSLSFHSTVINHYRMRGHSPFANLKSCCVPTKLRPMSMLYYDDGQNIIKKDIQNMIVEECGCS

T4: Human Activin B (human, UniProt P09529 293-407)
T4 sequence (looked up): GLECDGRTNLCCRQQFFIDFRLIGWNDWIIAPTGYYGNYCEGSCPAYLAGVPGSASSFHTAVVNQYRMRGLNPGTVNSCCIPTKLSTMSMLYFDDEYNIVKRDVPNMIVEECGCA

T5: Human BMP10 (human, UniProt O95393 317-424)
T5 sequence (looked up): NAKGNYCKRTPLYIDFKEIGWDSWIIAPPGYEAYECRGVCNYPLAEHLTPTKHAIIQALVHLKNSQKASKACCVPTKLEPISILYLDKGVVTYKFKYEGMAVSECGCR

T6: Human BMP9 (human, UniProt Q9UK05 320-429)
T6 sequence (looked up): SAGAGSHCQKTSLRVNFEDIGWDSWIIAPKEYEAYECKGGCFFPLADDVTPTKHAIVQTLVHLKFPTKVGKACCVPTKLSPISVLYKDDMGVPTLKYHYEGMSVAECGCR

T7: GDNF (UniProt P39905 78-211)
T7 sequence (looked up): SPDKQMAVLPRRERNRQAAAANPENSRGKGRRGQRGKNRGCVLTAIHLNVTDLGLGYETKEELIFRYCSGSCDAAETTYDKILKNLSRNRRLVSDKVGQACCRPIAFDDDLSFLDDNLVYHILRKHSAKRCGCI

T8: GDF15 (ligand used in the GFRAL/RET cell assays) (UniProt Q99988 197-308, limits assumed)
T8 sequence (looked up): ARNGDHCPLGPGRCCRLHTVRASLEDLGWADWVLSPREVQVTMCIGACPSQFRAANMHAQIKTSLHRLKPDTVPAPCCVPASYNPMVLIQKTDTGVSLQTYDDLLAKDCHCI

B1: GDF15 antibody agent Clone M, IgG (antibody, V domains shown)
VH: QVQLVQSGAEVKKPGASVKVSCKASGYTFDSYGINWVRQAPGQGLEWMGWISAYSGDTAYAQELQGRVTMTTDTSTSTAYMELRSLRSDDTAVYYCVRDTQYGGSPYWGQGTLVTVSS
VL: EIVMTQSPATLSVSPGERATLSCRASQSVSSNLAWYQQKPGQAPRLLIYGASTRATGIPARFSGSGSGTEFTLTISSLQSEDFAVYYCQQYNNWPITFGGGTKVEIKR
B2: GDF15 antibody agent Clone N, IgG (antibody, V domains shown)
VH: QVQLVQSGAEVKKPGASVKVSCKASGYTFTDYGIFWVRQAPGQGLEWMGWITAYSGDTHYAQKLQGRVTMTTDTSTSTAYMELRSLRSDDTAVYYCVRDTQYGGSPYWGQGTLVTVSS
VL: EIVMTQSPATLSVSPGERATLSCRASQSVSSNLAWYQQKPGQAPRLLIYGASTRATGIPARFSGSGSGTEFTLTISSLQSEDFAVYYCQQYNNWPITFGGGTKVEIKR
B3: GDF15 antibody agent Clone K, IgG (antibody, V domains shown)
VH: QVQLVQSGAEVKKPGASVKVSCKASGYTFTNEGISWVRQAPGQGLEWMGWISAYTADTFYAQKLQGRVTMTTDTSTSTAYMELRSLRSDDTAVYYCARTRHDTSGLRFDYWGQGTLVTVSS
VL: DIQMTQSPSSVSASVGDRVTITCRASQGIDSWLAWYQQKPGKAPKLLIYAASSLQSGVPSRFSGSGSGTDFTLTISSLQPEDFATYYCQQVHSFPITFGGGTKVEIKR
B4: GDF15 antibody agent Clone L, IgG (antibody, V domains shown)
VH: QVQLVQSGAEVKKPGASVKVSCKASGYTFASYDIIWVRQAPGQGLEWMGWISALSGDTVYAQKLQGRVTMTTDTSTSTAYMELRSLRSDDTAVYYCARTRHDTSGIRFDYWGQGTLVTVSS
VL: DIQMTQSPSSVSASVGDRVTITCRASQGIDSWLAWYQQKPGKAPKLLIYAASSLQSGVPSRFSGSGSGTDFTLTISSLQPEDFATYYCQQVHSFPITFGGGTKVEIKR
B5: GDF15 antibody agent Clone A, IgG (antibody, V domains shown)
VH: QVQLQESGPGLVKPSQTLSLTCTVSGGSITSGGSYWSWIRQHPGKGLEWIGAIVYSGSTYYNPSLKSRVTISVDTSKNQFSLKLSSVTAADTAVYYCARGVEYQHFDYWGQGTLVTVSS
VL: not shown
B6: GDF15 antibody agent Clone D, IgG (antibody, V domains shown)
VH: QVQLQESGPGLVKPSQTLSLTCTVSGGSINSGGYYWTWIRQHPGKGLEWIGAIYYSGSTVYNPSLKSRVTISVDTSKNQFSLKLSSVTAADTAVYYCARGVEYQHFNEWGQGTLVTVSS
VL: not shown
B7: GDF15 antibody agent Clone C, IgG (antibody, V domains shown)
VH: QVQLQESGPGLVKPSQTLSLTCTVSGGSISSGGYYWSWIRQHPGKGLEWIGAIVYSGHTYYNPSLKSRVTISVDTSKNQFSLKLSSVTAADTAVYYCARGVEYQHFSLWGQGTLVTVSS
VL: not shown
B8: GDF15 antibody agent Clone G, IgG (antibody, V domains shown)
VH: QVQLVQSGAEVKKPGSSVKVSCKASGGTFQGYAISWARQAPGQGLEWMGGIIPPYATANYAQKFQGRVTITADESTSTAYMELSSLRSEDTAVYYCARGVGELHLDVWGQGTMVTVSS
VL: not shown

Experiments:
Human GDF15 Fc = biological target: T1, Human GDF15 Fc; test: BLI Octet; IgG on sensor, 100 nM antigen (avid)
Experimental: Briefly, ForteBio affinity measurements were performed by loading IgGs on-line onto AHC sensors. Sensors were equilibrated off-line in assay buffer for 30 min and then monitored on-line for 60 seconds for baseline establishment. Sensors with loaded IgGs were exposed to 100 nM antigen for 3 minutes, and afterwards were transferred to assay buffer for 3 min for off-rate measurement. All kinetics were analyzed using the 1:1 binding model.

GDF10 [1] = biological target: T2, GDF10; test: BLI Octet; IgG on sensor
GDF8 = GDF8 (UniProt O14793 267-375); test: BLI Octet; IgG on sensor
Human Activin A Fc [2] = biological target: T3, Human Activin A Fc; test: BLI Octet; IgG on sensor
Human Activin B [3] = biological target: T4, Human Activin B; test: BLI Octet; IgG on sensor
Human BMP10 [4] = biological target: T5, Human BMP10; test: BLI Octet; IgG on sensor
Human BMP9 [5] = biological target: T6, Human BMP9; test: BLI Octet; IgG on sensor
GDF11 = biological target: T9, GDF11 (UniProt O95390 299-407); test: BLI Octet; IgG on sensor
T9 construct: Also used as ligand in the Activin 2B receptor/SMAD reporter assay

GDNF [6] = biological target: T7, GDNF; test: BLI Octet; IgG on sensor, 100 nM antigen (avid)
[7] = biological target: T8, GDF15 (ligand used in the GFRAL/RET …); test: cell-based or functional assay
GDNF [8] = biological target: T7, GDNF; test: BLI Octet; IgG on sensor
Human Activin A Fc [9] = biological target: T3, Human Activin A Fc; test: BLI Octet; IgG on sensor, 100 nM antigen (avid)
Human BMP10 [10] = biological target: T5, Human BMP10; test: BLI Octet; IgG on sensor, 100 nM antigen (avid)
Human BMP9 [11] = biological target: T6, Human BMP9; test: BLI Octet; IgG on sensor, 100 nM antigen (avid)
Human Activin B [12] = biological target: T4, Human Activin B; test: BLI Octet; IgG on sensor, 100 nM antigen (avid)
GDF10 [13] = biological target: T2, GDF10; test: BLI Octet; IgG on sensor, 100 nM antigen (avid)

T9 sequence (O95390 299-407 limits assumed): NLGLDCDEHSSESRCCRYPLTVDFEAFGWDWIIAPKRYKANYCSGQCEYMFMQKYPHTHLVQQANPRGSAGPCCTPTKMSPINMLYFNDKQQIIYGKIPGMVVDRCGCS

Binder | Kd (Human GDF15 Fc) [nM] | binding result (GDF10 [1]) | binding result (GDF8) | binding result (Human Activin A Fc [2]) | binding result (Human Activin B [3]) | binding result (Human BMP10 [4]) | binding result (Human BMP9 [5]) | binding result (GDF11) | Kd (GDNF [6]) [nM] | GDF15-GFRAL RET pERK IC50 (pM) [7] [pM] | GDF15-GFRAL-RET Luciferase IC50 (pM) [7] [pM] | binding result (GDNF [8]) | Kd (Human Activin A Fc [9]) [nM] | binding result (Human BMP10 [10]) | binding result (Human BMP9 [11]) | Kd (Human Activin B [12]) [nM] | Kd (GDF10 [13]) [nM]
B1 | 0.317 | no binding (tested: 100 nM) | no binding (tested: 100 nM) | no binding (tested: 100 nM) | no binding (tested: 100 nM) | no binding (tested: 100 nM) | no binding (tested: 100 nM) | no binding (tested: 100 nM) | 31.4 | 88.7 |  |  |  |  |  |  | 
B2 | 0.336 | no binding (tested: 100 nM) | no binding (tested: 100 nM) | no binding (tested: 100 nM) | no binding (tested: 100 nM) | no binding (tested: 100 nM) | no binding (tested: 100 nM) | no binding (tested: 100 nM) | 2.56 | 99.7 |  |  |  |  |  |  | 
B3 | 0.271 | no binding (tested: 100 nM) | no binding (tested: 100 nM) | no binding (tested: 100 nM) | no binding (tested: 100 nM) | no binding (tested: 100 nM) | no binding (tested: 100 nM) | no binding (tested: 100 nM) | 333 | 187 | 813 |  |  |  |  |  | 
B4 | 0.325 | no binding (tested: 100 nM) | no binding (tested: 100 nM) | no binding (tested: 100 nM) | no binding (tested: 100 nM) | no binding (tested: 100 nM) | no binding (tested: 100 nM) | no binding (tested: 100 nM) | 229 | 13.5 | 274 |  |  |  |  |  | 
B5 | 0.263 |  | no binding (tested: 100 nM) |  | no binding (tested: 100 nM) |  |  | no binding (tested: 100 nM) |  | 102 | 75 | no binding (tested: 100 nM) | 7.34 | binds | binds |  | 
B6 | 0.263 |  | no binding (tested: 100 nM) |  | no binding (tested: 100 nM) | no binding (tested: 100 nM) |  | no binding (tested: 100 nM) |  | 50.4 | 58.7 | no binding (tested: 100 nM) | 7.87 |  | binds |  | 
B7 | 0.254 |  | no binding (tested: 100 nM) |  |  | no binding (tested: 100 nM) |  | no binding (tested: 100 nM) |  | 145 | 39.6 | no binding (tested: 100 nM) | 6.48 |  | binds | 132 | 
B8 | 0.256 |  | no binding (tested: 100 nM) | no binding (tested: 100 nM) | no binding (tested: 100 nM) |  |  | no binding (tested: 100 nM) |  | 66.7 | 97.1 | no binding (tested: 100 nM) |  | binds | binds |  | 36.8
